Reference: US20200392252A1 (ALLOGENE THERAPEUTICS, published 2020)

Biological target: T1, FokI catalytic domain protein including a C-terminal 6xHis tag and GSGS linker (Flavobacterium okeanokoites, UniProt P14870 426-579)
T1 construct: also called Fok-1; Fok1
T1 sequence: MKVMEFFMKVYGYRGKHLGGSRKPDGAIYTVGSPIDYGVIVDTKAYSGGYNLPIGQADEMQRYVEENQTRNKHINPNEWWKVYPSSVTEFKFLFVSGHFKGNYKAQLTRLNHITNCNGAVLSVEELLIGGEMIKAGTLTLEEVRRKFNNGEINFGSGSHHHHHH
Assay: Biacore SPR, antibody as ligand, FokI as analyte

Binder	Kd	koff	kon	t1/2
2299.5D4.C8 (antibody, V domains shown) VH: QIQLVQSGPELKKPGETVKISCKASGYTFTDYSIHWVKQAPGEGLKWMAWINTETGAPTFADDFKGRLALSLETSANTAYLQINNLKHEDTATYFCAKEGGFYFYAMDYWGQGTSVTVSS VL: DIVMSQSPSSLAVSAGEKVTMSCKSSQSLLSSRTRKNYLAWYQQKPGQAPKLLISWASTRESGVPDRFTGSGSGTEFTLTISSVQAEDLAVYYCKQSYNLRTFGGGTKLEIK	< 7.63 nM	< 8.55e-05 s⁻¹	11200 M⁻¹ s⁻¹	> 2.25 h
2299.6B3.B8.B6 (antibody, V domains shown) VH: QIQLVQSGPELKKPGETVKISCKASGYAFTDYSIHWMKQAPGEGLQWMGWINTETAKPAFGDDFKGRFAFSLETSANTAHLHINNLRTEDTATYFCAKEGGFYFYAMDYWGQGTSVTVSS VL: DIVMSQSPSSLAVSAGEKVTMNCKSSQSLLSSRTRKNYLAWYQQKPGQSPKLLIYWASTRDSGVPDRFTGSGSGTDFTLTISSVQAEDLAVYYCKQSYNFRTFGGGTKLEIK	< 8.66 nM	< 8.55e-05 s⁻¹	9870 M⁻¹ s⁻¹	> 2.25 h
2299.6G5.C7 (antibody, V domains shown) VH: QIQLVQSGPELKKPGETVKISCKASGYTFTDYSIHWVKQAPGKGLKWMGWINTETGAPTFADDFKGRFAFSLETSASTAFLQINNLKNEDTATYFCAKEGGFYFYAMDYWGQGTSLTVSS VL: DIVMSQSPSSLAVSTGEKVTMSCKSSQSLLSSRTRKNYLAWYQQKPGQAPKLLISWASTRESGVPDRFTGSGSGTDFTLTISSVQAEDLAVYYCKQSFNLRTFGGGTKLEIK	< 16.2 nM	< 8.55e-05 s⁻¹	5270 M⁻¹ s⁻¹	> 2.25 h
2299.7F11.B4 (antibody, V domains shown) VH: QIQLVQSGPELKKPGETVKISCKASGYTFTDYSIHWVKQAPGKGLKWMAWINTETGDPTYEDDFKGRFAFSLETSASTAYLQINNLKNEDTATYFCSKEGGFYFYAMDYWGQGTSVTVSS VL: DIVMSQSPSSLAVSAGEKVTMSCKSSQSLLSSRTRKNYLAWYQQKPGQSPKLLIKWASTRESGVPDRFTGSGSGTDFTLTISSVQAEDLAVYYCKQSYNLRTFGGGTKLEIK	< 1.13 nM	< 8.55e-05 s⁻¹	75700 M⁻¹ s⁻¹	> 2.25 h
2299.2G3.C6 (antibody, V domains shown) VH: QIQLVQSGPELKKPGETVKISCKASGYTFTDYSIHWVKQAPGEGLKWMAWINTETGAPTFADDFKGRLALSLETSANTAYLQINNLKHEDTATYFCAKEGGFYFYAMDYWGQGTSVTVSS VL: DIVMSQSPSSRAVSAGEKVTMSCKSSQSLLSSRTRKNYLAWYQQKPGQAPKMLISWASTREFGVPDRFTGSGFGTDFTLTISSVQGEDLAVYYCKQSYNFRTFGGGTKLEIK	< 4.83 nM	< 8.55e-05 s⁻¹	17700 M⁻¹ s⁻¹	> 2.25 h
